Assays:
[1] = molecular target: T1, human FcRH3 (full-length, on SVT2 cells) (human, UniProt Q96P31 18-734); experiment: flow cytometry, SVT2 cells
T1 construct: whole, on cells; also called SVT2-FcRH3
T1 sequence (looked up): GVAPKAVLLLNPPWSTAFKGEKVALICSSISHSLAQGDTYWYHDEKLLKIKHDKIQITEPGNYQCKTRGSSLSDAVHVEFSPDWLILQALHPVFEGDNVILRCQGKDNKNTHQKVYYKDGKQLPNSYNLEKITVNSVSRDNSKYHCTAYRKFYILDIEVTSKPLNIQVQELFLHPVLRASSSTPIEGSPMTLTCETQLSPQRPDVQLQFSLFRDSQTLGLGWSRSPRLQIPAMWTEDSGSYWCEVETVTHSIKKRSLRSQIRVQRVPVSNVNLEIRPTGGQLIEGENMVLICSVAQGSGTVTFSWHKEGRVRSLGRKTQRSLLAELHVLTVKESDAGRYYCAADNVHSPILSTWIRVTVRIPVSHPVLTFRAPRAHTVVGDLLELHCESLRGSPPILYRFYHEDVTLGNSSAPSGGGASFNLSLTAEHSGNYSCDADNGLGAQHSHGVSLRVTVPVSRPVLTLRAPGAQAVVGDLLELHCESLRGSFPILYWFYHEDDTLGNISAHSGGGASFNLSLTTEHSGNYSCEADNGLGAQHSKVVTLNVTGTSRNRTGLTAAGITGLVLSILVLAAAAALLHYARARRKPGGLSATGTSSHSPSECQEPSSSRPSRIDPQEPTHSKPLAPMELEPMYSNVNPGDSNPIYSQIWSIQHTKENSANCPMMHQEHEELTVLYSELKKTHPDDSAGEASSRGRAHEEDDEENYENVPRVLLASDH
Experimental: (§1) Human FcRH5, cyno FcRH5, human FcRH1, FcRH2, FcRH3, and FcRH4 transfected mouse SVT2 cells were used to test binding and cross-reactivity of FcRH5 TDBs. The method was carried out as follows. Cultured SVT2 cells were lifted using non-enzyme cell dissociation buffer (Sigma, #C5914). 1×10⁵ cells were suspended in 100 μL and incubated with FcRH5 TDBs at 3 μg/ml. […] Cells were washed twice with FACS buffer before flow cytometry analysis was carried out on a FACSCalibur.

[2] = molecular target: T2, human FcRH5 (full-length, on cells) (human, UniProt Q96RD9 16-977); experiment: flow cytometry, SVT2 cells
T2 construct: Transfected SVT2/293 cells or endogenous expression (MOLP-2, primary cells); also called SVT2-FcRH5; SVT2-huFcRH5
T2 sequence: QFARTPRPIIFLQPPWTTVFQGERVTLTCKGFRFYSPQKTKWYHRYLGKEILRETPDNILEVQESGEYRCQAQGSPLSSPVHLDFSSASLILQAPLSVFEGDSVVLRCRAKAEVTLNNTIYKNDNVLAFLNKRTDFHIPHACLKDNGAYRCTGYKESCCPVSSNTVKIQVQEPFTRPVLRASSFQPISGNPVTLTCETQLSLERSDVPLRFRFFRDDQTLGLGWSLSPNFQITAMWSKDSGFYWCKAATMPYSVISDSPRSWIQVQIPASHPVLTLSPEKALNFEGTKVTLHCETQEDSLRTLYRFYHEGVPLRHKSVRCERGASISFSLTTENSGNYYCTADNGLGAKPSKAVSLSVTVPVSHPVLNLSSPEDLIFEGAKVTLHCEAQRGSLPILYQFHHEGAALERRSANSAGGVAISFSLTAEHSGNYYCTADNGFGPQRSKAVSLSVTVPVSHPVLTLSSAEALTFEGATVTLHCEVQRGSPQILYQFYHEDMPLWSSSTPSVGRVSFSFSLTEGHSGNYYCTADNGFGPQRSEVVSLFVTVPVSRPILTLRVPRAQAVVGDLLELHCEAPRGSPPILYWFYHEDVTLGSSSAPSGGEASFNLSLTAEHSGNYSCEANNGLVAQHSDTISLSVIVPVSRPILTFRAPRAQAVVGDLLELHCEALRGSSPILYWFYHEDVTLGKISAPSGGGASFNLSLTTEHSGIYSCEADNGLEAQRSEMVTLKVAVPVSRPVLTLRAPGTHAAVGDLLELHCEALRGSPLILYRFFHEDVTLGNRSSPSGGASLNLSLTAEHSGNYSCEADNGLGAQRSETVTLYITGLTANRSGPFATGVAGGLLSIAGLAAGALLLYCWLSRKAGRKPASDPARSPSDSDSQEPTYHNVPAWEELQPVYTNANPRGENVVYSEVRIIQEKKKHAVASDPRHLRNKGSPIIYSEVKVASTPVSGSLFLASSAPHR
Experimental: as §1

B1: hu1G7.v87/38E4.v1 TDB (bispecific antibody, V domains shown)
VH 1: EVQLVESGPGLVKPSETLSLTCTVSGFSLTRFGVHWVRQPPGKGLEWLGVIWRGGSTDYNAAFVSRLTISKDNSKNQVSLKLSSVTAADTAVYYCSNHYYGSSDYALDNWGQGTLVTVSS
VL 1: DIQMTQSPSSLSASVGDRVTITCKASQDVSNIVVWFQQKPGKSPKLLIYSASYRYTGVPSRFSGSGSGTDFTLTISSLQPEDFATYYCQQHYSSPYTFGQGTKVEIK
VH 2: EVQLVQSGAEVKKPGASVKVSCKASGFTFTSYYIHWVRQAPGQGLEWIGWIYPENDNTKYNEKFKDRVTITADTSTSTAYLELSSLRSEDTAVYYCARDGYSRYYFDYWGQGTLVTVSS
VL 2: DIVMTQSPDSLAVSLGERATINCKSSQSLLNSRTRKNYLAWYQQKPGQSPKLLIYWTSTRKSGVPDRFSGSGSGTDFTLTISSLQAEDVAVYYCKQSFILRTFGQGTKVEIK
notes: knob-into-hole TDB; also called 1G7.v87 TDB
- binding result [1]: no binding
- binding result [2]: binds
